Key:
[1] = target: H3-mini2-cl9 + 10 + 11-GCN4 (influenza A virus H3N2); assay: FACS
H3-mini2-cl9 + 13 = H3-mini2-cl9 + 13 (influenza A virus H3N2, UniProt Q38SQ8 18-566); assay: FACS
[2] = target: H3-mini2-cl9 + 10 + 11 + 13 (influenza A virus H3N2, UniProt Q38SQ8 18-566); assay: FACS
[3] = target: H3-mini2-cl9 + 10 + 11 + 13-tri (influenza A virus H3N2); assay: FACS
[4] = target: H3-mini2-cl9 + 10 + 11 + 13-GCN4 (influenza A virus H3N2); assay: FACS
[5] = target: H3-mini2-cl9 + 10 + 11-tri (influenza A virus H3N2); assay: FACS
[6] = target: HA of influenza virus A/Hong Kong/1073/99 (H9) (influenza A virus H9); assay: cell-based or functional assay
[7] = target: HA of influenza virus A/Panama/2007/1999 (H3) (influenza A virus H3); assay: cell-based or functional assay
[8] = target: HA of influenza virus A/EW/MPD411/07 (H6) (influenza A virus H6); assay: cell-based or functional assay
[9] = target: HA of influenza virus A/Chick/Germany/N/49 (H10) (influenza A virus H10); assay: cell-based or functional assay
[10] = target: HA of influenza virus A/Env/MPU3156/05 (H2) (influenza A virus H2); assay: cell-based or functional assay
[11] = target: HA of influenza virus A/Hiroshima/52/2005 (H3) (influenza A virus H3); assay: cell-based or functional assay
[12] = target: HA of influenza virus A/WF/MPA 892/06 (H4) (influenza A virus H4); assay: cell-based or functional assay
[13] = target: HA of influenza virus A/EW/MPH571/08 (H8) (influenza A virus H8); assay: cell-based or functional assay
[14] = target: HA of influenza virus A/Johannesburg/33/94 (H3) (influenza A virus H3); assay: cell-based or functional assay
[15] = target: HA of influenza virus A/EW/MPF461/07 (H5) (influenza A virus H5); assay: cell-based or functional assay
[16] = target: HA of influenza virus A/Ck/HK/SSP176/09 (H9) (influenza A virus H9); assay: cell-based or functional assay
[17] = target: HA of influenza virus A/Brisbane/10/2007 (H3) (influenza A virus H3); assay: cell-based or functional assay

B1: CR9114 (antibody, V domains shown)
VH: QVQLVQSGAEVKKPGSSVKVSCKSSGGTSNNYAISWVRQAPGQGLDWMGGISPIFGSTAYAQKFQGRVTISADIFSNTAYMELNSLTSEDTAVYFCARHGNYYYYSGMDVWGQGTTVTVSS
VL: SYVLTQPPAVSGTPGQRVTISCSGSDSNIGRRSVNWYQQFPGTAPKLLIYSNDQRPSVVPDRFSGSKSGTSASLAISGLQSEDEAEYYCAAWDDSLKGAVFGGGTQLTVL
[1]
  binding result: no binding (tested: 5 microgram/ml)
H3-mini2-cl9 + 13
  binding result: no binding (tested: 5 microgram/ml)
[2]
  binding result: no binding (tested: 5 microgram/ml)
[3]
  binding result: no binding (tested: 5 microgram/ml)
[4]
  binding result: no binding (tested: 5 microgram/ml)
[5]
  binding result: no binding (tested: 5 microgram/ml)
[6]
  geomean IC50, virus neutralization assay (VNA): 4.4 µg/mL
[7]
  geomean IC50, virus neutralization assay (VNA): 39.9 µg/mL
[8]
  geomean IC50, virus neutralization assay (VNA): 10.5 µg/mL
[9]
  geomean IC50, virus neutralization assay (VNA): 15.7 µg/mL
[10]
  geomean IC50, virus neutralization assay (VNA): 8.8 µg/mL
[11]
  geomean IC50, virus neutralization assay (VNA): 12.5 µg/mL
[12]
  geomean IC50, virus neutralization assay (VNA): 0.8 µg/mL
[13]
  geomean IC50, virus neutralization assay (VNA): 8.8 µg/mL
[14]
  geomean IC50, virus neutralization assay (VNA): 21.9 µg/mL
[15]
  geomean IC50, virus neutralization assay (VNA): 10.5 µg/mL
[16]
  geomean IC50, virus neutralization assay (VNA): 6.3 µg/mL
[17]
  geomean IC50, virus neutralization assay (VNA): 5.6 µg/mL
